The values below are quoted from earlier work in doi:10.1101/2024.11.09.622800.

Series [1] addresses Glu172 (UniProt position 200, QVMATEGYQSS).
In series [2] the target is Asp26 (UniProt position 26, KLVVVDFSATW).
Series [3] has as its target Lys132 (UniProt position 214, KSEAQKKKEKL). The series is described as follows: stability.
The target of series [4] is Asp85 (UniProt position 98, WARYADWLFTT).
The target in series [5] is Asp75 (UniProt position 122, TWREADINYTS).
Series [6] deals with Glu325 (UniProt position 325, TLHMFEVPFLL).
Series [7] has as its target Asp41 (UniProt position 123, LLLVDDPETKH). As to the kind of experiment: stability.
For series [8], the target named is Asp118 (UniProt position 200, YVYKPDNTHEQ). As to the kind of experiment: stability.
The target of series [9] is Cys48 (UniProt position 48, SLKASCLYGQL).

Read-outs that look alike come from different tables or passages of the source.

Consider “Xylanase (endo-1,4-beta-xylanase), wild type (Bacillus circulans (not stated in the article))”, for which, in series [1], the pKa is 6.7.

Turning to Thioredoxin (Homo sapiens), the pKa is reported as 8.1 in [2] (oxidized) and 9.9 in series [2] (reduced).

Consider “Staphylococcal nuclease (SNase) A132K variant (Staphylococcus aureus; A132K)”, for which the pKa in series [3] is recorded as 10.4.

In the case of “Bacteriorhodopsin (Halobacterium salinarum (not stated in the article))”, the pKa in [4] (conformational state associated by the authors with PDB 1IW6) is on record as 7.2; in series [4] (conformational state associated by the authors with PDB 1UCQ (retinal forms a salt bridge with Asp85)), 2.6.

As to “Barnase (Bacillus amyloliquefaciens (not stated in the article))”, the pKa in [5] was 3.1.

“Lactose permease LacY (Escherichia coli (not stated in the article))”: in series [6], the pKa is given as 10.5.

As to “Xylanase, mutant with Glu78 covalently linked to substrate (PDB 3VZO) (Bacillus circulans (not stated in the article); not stated (the article says only that 'another nearby residue is mutated'))”, in series [1] (Glu78 covalently linked to substrate (covalent intermediate), nearby residue mutated), the pKa is given as 2.8.

As to “Staphylococcal nuclease (SNase) T41D variant (Staphylococcus aureus; T41D)”, the pKa result in [7] is recorded as “∼4”.

“Staphylococcal nuclease (SNase) N118D variant (Staphylococcus aureus; N118D)”: the pKa in series [8] is listed as 7.0.

For the substance Glutathione S-transferase (PDB 5X79), the pKa in series [9] is 3.7.
